Results taken from paper PMC5461336, “Non-canonical Glucocorticoid Receptor Transactivation of gilz by Alcohol Suppresses Cell Inflammatory Response”.

Target: Glucocorticoid receptor (Hu-GR), unliganded (human, UniProt P04150 1-777)
Test: EMSA; no glucocorticoid; GR 40 ng (0.5 pmol), probe 0.5 ng (0.05 pmol), 1 ug poly(dI-dC), 25 ul; 6% non-denaturing PAGE; buffer, salt, pH and temperature not stated
Details: protein: recombinant; chain copies: 2; label: 32P 5'-end; blunt

Chain of Glucocorticoid receptor (Hu-GR), unliganded (P04150 whole entry): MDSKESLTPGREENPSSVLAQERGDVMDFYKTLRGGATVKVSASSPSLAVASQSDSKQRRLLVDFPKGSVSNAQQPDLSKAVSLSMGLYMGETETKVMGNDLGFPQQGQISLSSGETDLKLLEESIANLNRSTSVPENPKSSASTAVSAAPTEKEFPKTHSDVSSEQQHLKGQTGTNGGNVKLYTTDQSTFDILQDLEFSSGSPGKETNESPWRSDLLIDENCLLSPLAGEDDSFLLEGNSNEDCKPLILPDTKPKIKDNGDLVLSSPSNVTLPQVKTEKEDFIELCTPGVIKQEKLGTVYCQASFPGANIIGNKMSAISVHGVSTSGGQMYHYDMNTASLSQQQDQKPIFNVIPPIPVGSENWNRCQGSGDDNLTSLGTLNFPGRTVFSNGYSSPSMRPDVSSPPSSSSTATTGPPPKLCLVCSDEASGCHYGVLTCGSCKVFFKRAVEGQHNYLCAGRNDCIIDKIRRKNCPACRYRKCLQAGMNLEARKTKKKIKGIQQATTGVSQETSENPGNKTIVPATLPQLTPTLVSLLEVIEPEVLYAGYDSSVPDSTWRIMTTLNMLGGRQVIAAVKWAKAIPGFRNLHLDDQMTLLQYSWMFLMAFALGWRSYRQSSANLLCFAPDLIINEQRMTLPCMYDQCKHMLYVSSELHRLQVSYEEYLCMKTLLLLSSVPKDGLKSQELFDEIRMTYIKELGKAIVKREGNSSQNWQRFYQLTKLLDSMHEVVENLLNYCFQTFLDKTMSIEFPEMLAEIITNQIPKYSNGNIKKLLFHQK

Binder	binding result
Wt-GRE2 (dsDNA) DNA 1: GGTGGAACCCAATGTTCTCCTTTGGTCCTG DNA 2: CAGGACCAAAGGAGAACATTGGGTTCCACC	binds
Mut-GRE1 (dsDNA) DNA 1: CAAACTAGCGCCAGGTCTTTACTGAATGCCC DNA 2: GGGCATTCAGTAAAGACCTGGCGCTAGTTTG	no binding
Mut-GRE2 (dsDNA) DNA 1: GGTGGAACCCAAGAGCACCCTTTGGTCCTG DNA 2: CAGGACCAAAGGGTGCTCTTGGGTTCCACC	no binding
Wt-GRE1 (dsDNA) DNA 1: CAAACTAGCGCTGTTCTTTACTGAATGCCC DNA 2: GGGCATTCAGTAAAGAACAGCGCTAGTTTG	binds
